The values that follow come from article PMC4694050 (Journal of the American Chemical Society, 2015).

The test system of series [1] is TIM from chicken muscle. The note with it: chicken muscle TIM loop replacement mutant; pH 7.5, 25 °C; cited from earlier work.
The subject of series [2] is TIM from chicken muscle. The note with it: cited from earlier work.
In series [3] the test system is TIM from chicken muscle. The note with it: chicken muscle TIM loop replacement mutant; pH 7.5, 25 °C; cited from earlier work. This is another data set of the same source.
Series [4] has as its system Triosephosphate Isomerase from Yeast. It counts as biochemical, Saccharomyces cerevisiae. The note with it: isomerization of DHAP; pH 7.5, 25 °C, I = 0.1 (NaCl).
For series [5] the test system is unchanged. Type of series: biochemical, Saccharomyces cerevisiae. The note with it: for GAP kcat: 30 mM triethanolamine pH 7.5, 25 °C.
Series [6] concerns the target T1, Triosephosphate Isomerase from Yeast (Saccharomyces cerevisiae, UniProt P00942, Y208F).
T1 sequence (P00942 2-248 Y208F): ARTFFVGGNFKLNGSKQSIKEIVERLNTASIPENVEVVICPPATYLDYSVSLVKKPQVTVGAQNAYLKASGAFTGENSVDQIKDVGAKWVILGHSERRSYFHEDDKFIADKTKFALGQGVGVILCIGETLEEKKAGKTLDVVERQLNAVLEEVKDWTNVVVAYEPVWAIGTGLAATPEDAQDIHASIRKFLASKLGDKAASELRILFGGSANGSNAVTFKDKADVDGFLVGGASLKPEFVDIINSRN
The conditions noted are these: isomerization of [l-^2H]-dihydroxyacetone phosphate; cited from earlier work.

In series [7] the test system is yTIM. It counts as biochemical, Saccharomyces cerevisiae. The note with it: unactivated deprotonation of glycolaldehyde.
Series [8] addresses T1, Triosephosphate Isomerase from Yeast. It counts as biochemical.
In series [9] the test system is ketosteroid isomerase (KSI) from Pseudomonas putida. The note with it: cited from earlier work.
[10] abbreviates: isomerization of GAP, I = 0.1 (NaCl).

B1: 208-TGAG for 208-YGGS (LRM): 208-TGAG for 208-YGGS loop 7 replacement mutation of TIM from chicken muscle (protein, UniProt P00940 2-248, looked up, variant Y208T G210A S211G)
Triosephosphate isomerase: APRKFFVGGNWKMNGDKKSLGELIHTLNGAKLSADTEVVCGAPSIYLDFARQKLDAKIGVAAQNCYKVPKGAFTGEISPAMIKDIGAAWVILGHSERRHVFGESDELIGQKVAHALAEGLGVIACIGEKLDEREAGITEKVVFEQTKAIADNVKDWSKVVLAYEPVWAIGTGKTATPQQAQEVHEKLRGWLKSHVSDAVAQSTRIITGAGVTGGNCKELASQHDVDGFLVGGASLKPEFVDIINAKH
B1: the DHAP kcat in series [1] is given as 8.0 s^–1. For the same molecule, the “(kcat/Km)E•HPi/Kd” value in series [2] (chicken muscle TIM loop replacement mutant, third-order rate constant) was 95 M^–2 s^–1. Besides, the “effect of mutation on [(kcat/Km)E]obs: KC” value in series [2] (chicken muscle TIM) was “no change”. Further, in series [3], the GAP kcat is listed as 16 s^–1.

B2: S211G (protein, UniProt P00942 2-248, looked up, variant S211G)
Triosephosphate isomerase: ARTFFVGGNFKLNGSKQSIKEIVERLNTASIPENVEVVICPPATYLDYSVSLVKKPQVTVGAQNAYLKASGAFTGENSVDQIKDVGAKWVILGHSERRSYFHEDDKFIADKTKFALGQGVGVILCIGETLEEKKAGKTLDVVERQLNAVLEEVKDWTNVVVAYEPVWAIGTGLAATPEDAQDIHASIRKFLASKLGDKAASELRILYGGGANGSNAVTFKDKADVDGFLVGGASLKPEFVDIINSRN
With B2, the DHAP kcat in [4] is given as 810 ± 10 s^–1. The “activity relative to S211A TIM” value in series [5] (S211G greater than S211A) worked out at 20 fold. The GAP kcat in series [5] (setting [10]) came out at 7500 ± 500 s^–1.

B3: Y208F: Y208F loop 7 mutant of yeast triosephosphate isomerase (protein, UniProt P00942 2-248, looked up, variant Y208F)
Triosephosphate isomerase: ARTFFVGGNFKLNGSKQSIKEIVERLNTASIPENVEVVICPPATYLDYSVSLVKKPQVTVGAQNAYLKASGAFTGENSVDQIKDVGAKWVILGHSERRSYFHEDDKFIADKTKFALGQGVGVILCIGETLEEKKAGKTLDVVERQLNAVLEEVKDWTNVVVAYEPVWAIGTGLAATPEDAQDIHASIRKFLASKLGDKAASELRILFGGSANGSNAVTFKDKADVDGFLVGGASLKPEFVDIINSRN
As for B3, the “primary deuterium kinetic isotope effect kH/kD on kcat/Km” value in [6] is reported as 6. Besides, the DHAP kcat in [4] came out at 4.5 ± 0.3 s^–1. Besides, the “decrease in (kcat/Km)E compared with wildtype” value in series [7] is 20 fold. In series [8] (kcat for GAP vs Kd^⧧ correlation), the “reduction in kcat implied by deviation from Figure 7 correlation” value is on record as 40 fold. The “negative deviation from the correlation in Figure 7” value in series [8] (log kcat for GAP vs intrinsic dianion binding energy) came to 1.6 log unit. The “reduction in enzyme activity compared to the Y208A and Y208S mutants” value in series [5] is recorded as “ca. 50 fold”. Moreover, the GAP kcat in [5] (setting [10]) came to 13 ± 1 s^–1.

B4: Y208T/S211G (protein, UniProt P00942 2-248, looked up, variant Y208T S211G)
Triosephosphate isomerase: ARTFFVGGNFKLNGSKQSIKEIVERLNTASIPENVEVVICPPATYLDYSVSLVKKPQVTVGAQNAYLKASGAFTGENSVDQIKDVGAKWVILGHSERRSYFHEDDKFIADKTKFALGQGVGVILCIGETLEEKKAGKTLDVVERQLNAVLEEVKDWTNVVVAYEPVWAIGTGLAATPEDAQDIHASIRKFLASKLGDKAASELRILTGGGANGSNAVTFKDKADVDGFLVGGASLKPEFVDIINSRN
Take B4: in series [4], the DHAP kcat was determined as 135 ± 5 s^–1 and the “DHAP kcat/Km” value is “(3.4 ± 0.2) × 10^4 M^–1 s^–1”. Besides, the GAP kcat in series [5] (setting [10]) was 520 ± 30 s^–1. In [5] (isomerization of GAP, pH 7.5, 25 °C, I = 0.1 (NaCl), calculated for total concentration of GAP), the “GAP kcat/Km (upper value)” value is recorded as “(7.3 ± 0.8) × 10^5 M^–1 s^–1”. For the same molecule, the “GAP kcat/Km (lower value)” value in [5] (isomerization of GAP, pH 7.5, 25 °C, calculated for the reactive carbonyl form, 4% of total GAP) is listed as 1.8 × 10^7 M^–1 s^–1.

B5: Y208S (protein, UniProt P00942 2-248, looked up, variant Y208S)
Triosephosphate isomerase: ARTFFVGGNFKLNGSKQSIKEIVERLNTASIPENVEVVICPPATYLDYSVSLVKKPQVTVGAQNAYLKASGAFTGENSVDQIKDVGAKWVILGHSERRSYFHEDDKFIADKTKFALGQGVGVILCIGETLEEKKAGKTLDVVERQLNAVLEEVKDWTNVVVAYEPVWAIGTGLAATPEDAQDIHASIRKFLASKLGDKAASELRILSGGSANGSNAVTFKDKADVDGFLVGGASLKPEFVDIINSRN
Consider B5, for which the DHAP kcat in series [4] is reported as 250 ± 5 s^–1. For the same molecule, the GAP kcat in [5] (setting [10]) is 940 ± 30 s^–1.

B6: Y208A (protein, UniProt P00942 2-248, looked up, variant Y208A)
Triosephosphate isomerase: ARTFFVGGNFKLNGSKQSIKEIVERLNTASIPENVEVVICPPATYLDYSVSLVKKPQVTVGAQNAYLKASGAFTGENSVDQIKDVGAKWVILGHSERRSYFHEDDKFIADKTKFALGQGVGVILCIGETLEEKKAGKTLDVVERQLNAVLEEVKDWTNVVVAYEPVWAIGTGLAATPEDAQDIHASIRKFLASKLGDKAASELRILAGGSANGSNAVTFKDKADVDGFLVGGASLKPEFVDIINSRN
In turn, B6 showed a DHAP kcat in series [4] of 210 ± 5 s^–1. In [5] (setting [10]), this molecule came in with a GAP kcat of 740 ± 10 s^–1.

B7: S211A (protein, UniProt P00942 2-248, looked up, variant S211A)
Triosephosphate isomerase: ARTFFVGGNFKLNGSKQSIKEIVERLNTASIPENVEVVICPPATYLDYSVSLVKKPQVTVGAQNAYLKASGAFTGENSVDQIKDVGAKWVILGHSERRSYFHEDDKFIADKTKFALGQGVGVILCIGETLEEKKAGKTLDVVERQLNAVLEEVKDWTNVVVAYEPVWAIGTGLAATPEDAQDIHASIRKFLASKLGDKAASELRILYGGAANGSNAVTFKDKADVDGFLVGGASLKPEFVDIINSRN
For the molecule B7, in series [4], the DHAP kcat entry is “linear plot”. In series [7], the “decrease in (kcat/Km)E compared with wildtype” value amounted to 30 fold. Moreover, the GAP kcat in series [5] (setting [10]) was 2800 ± 100 s^–1.

B8: Y208T (protein, UniProt P00942 2-248, looked up, variant Y208T)
Triosephosphate isomerase: ARTFFVGGNFKLNGSKQSIKEIVERLNTASIPENVEVVICPPATYLDYSVSLVKKPQVTVGAQNAYLKASGAFTGENSVDQIKDVGAKWVILGHSERRSYFHEDDKFIADKTKFALGQGVGVILCIGETLEEKKAGKTLDVVERQLNAVLEEVKDWTNVVVAYEPVWAIGTGLAATPEDAQDIHASIRKFLASKLGDKAASELRILTGGSANGSNAVTFKDKADVDGFLVGGASLKPEFVDIINSRN
Consider B8, for which, in series [4], the DHAP kcat was 580 ± 10 s^–1. In addition, the GAP kcat in [5] (setting [10]) was found to be 3700 ± 50 s^–1.

B9: wildtype: wildtype triosephosphate isomerase from Saccharomyces cerevisiae (yTIM) (protein, UniProt P00942 2-248, looked up)
Triosephosphate isomerase: ARTFFVGGNFKLNGSKQSIKEIVERLNTASIPENVEVVICPPATYLDYSVSLVKKPQVTVGAQNAYLKASGAFTGENSVDQIKDVGAKWVILGHSERRSYFHEDDKFIADKTKFALGQGVGVILCIGETLEEKKAGKTLDVVERQLNAVLEEVKDWTNVVVAYEPVWAIGTGLAATPEDAQDIHASIRKFLASKLGDKAASELRILYGGSANGSNAVTFKDKADVDGFLVGGASLKPEFVDIINSRN
B9: in series [4], the DHAP kcat is 860 ± 10 s^–1. In addition, the GAP kcat in series [5] (setting [10]) stood at 8900 ± 700 s^–1.

B10: Y16F: Y16F mutant of ketosteroid isomerase (KSI) from Pseudomonas putida (protein, UniProt P07445 1-131, looked up, variant Y16F)
Steroid Delta-isomerase: MNLPTAQEVQGLMARFIELVDVGDIEAIVQMYADDATVEDPFGQPPIHGREQIAAFYRQGLGGGKVRACLTGPVRASHNGCGAMPFRVEMVWNGQPCALDVIDVMRFDEHGRIQTMQAYWSEVNLSVREPQ
As to B10, in series [9], the falloff in activity is 5000 fold; the “falloff in activity (decrease in kcat/Km) relative to that for Y16A, Y16G, Y16S and Y16T mutants” value was “ca. 100 fold”.
